Reference: the domain aggregation screens of Martell et al. (2025)

experiment: soluble fraction after stress (log2 fold change); higher = more stays soluble; pooled small domains, quantitative proteomics; conditions: stress: 50 degC
Summary of the method: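 After stress at 50°C, the amount of each protein still soluble was measured. This was done on pooled custom libraries of small protein domains, using high-throughput quantitative proteomics. The figure given is a base-two log fold change and stands for aggregation propensity, with higher values meaning more protein stays in solution.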

First: HMNVNVSFTQLRHKAEHAIQAKNWSEARNLLTLATLMRPTHRNVARRLKAVEQRNRLFRRLLLILTHRKV
Second: HMITLYIHNLEEVGKRLDHYLVSNLDDHSRSQIQSWIRSGSILVNDRSVKTGYSLELNDQILINPPK
The “soluble fraction (log2)” value of the first is higher: -0.295 for the first, -2.63 for the second.

“HMGQPGNWTSYVFKNSDTEPAKPTSSGPIPSGWNDAPTGVGIWWMSKATIDASTGKAGSWSTPIRVTGED” and “HMRNMVSVLDHIEGIGPKRRQLLYEHYGELEKIKEASVEEMAGLDGMNRPAAEAVYNFFLAQRNL” are within 0.2 log units of each other in “soluble fraction (log2)” value: 0.0592 for the first, 0.0507 for the second.

Compared with “HMTYNEYPEKEMQDLIDKSISQQEQAASQYGYSLGDYVTARYGFQSESDFREYVQGLAEDYMKEKI”, “HMQKPDIEVDFAEGDMVVVTGGAWKDTAGVITGINMQKQTVTINVELFGRETPVEISFTEIKKA” is higher in “soluble fraction (log2)” value: -0.198 for the first, 0.00574 for the second.

Compared with “HMGPYGAGSAAPAEDGSGPEGWTVKGNAKSMLYHTEGSPYYGRTNADVWFRDEESAEAAGFRRWDRK”, “HMTDVRFISIPIQKEHPWNRKLVSELNLPPGTLLVFLRRTGENIVPNGKTMIQEGDVLVLGASAYR” is lower in “soluble fraction (log2)” value: 0.0581 for the first, -0.295 for the second.

First: HMEKSLKELAQGVGQKVLTSGRPYHFDPMSAMERRVVHMTLMEMDGLRTESEGEGRFRHVVVFPA
Second: HMGTVQSVDRALLLLSEIGREPGGLVDLSTRVRLATSTTGRILATLEHAGAVVRGDDGIYHIGPLVHGMVS
The “soluble fraction (log2)” value of the first is higher: -0.184 for the first, -0.839 for the second.

“HMTDSSEILEAALKEAEDAAHEVLNGTFSVQLEPQKAYIRRLQHMLIDRMNLSSTSKGKEPYRSLLVYR” and “HMNVTIGESIKNVINHYGTPIYSYNPNNQEKYYEFHTNKGVLVVTAIGKKNTGYVTRVSMTY” are within 0.2 log units of each other in “soluble fraction (log2)” value: -1.11 for the first, -1.18 for the second.

“HMREYRITAEEGHPRIDVFLAGRPEIGLSRSRIQALIDEGQVTLNGAMPKARQAVNPGDVIVVRVPDPE” and “HMRDPLNTGFRQTLKDIVNSLPKNELYSPGVREEYIYPKIGVTSLGMEASMVLNGLISSRRKNIELKEKN” are within 0.2 log units of each other in “soluble fraction (log2)” value: 0.263 for the first, 0.447 for the second.

Compared with “HMFTYEETIGKSADVYLTIPALKAGKGKIIISVRGSVHELDAMTNNAEKISTGAVVKIVRIEHGNILLVEN”, “HMSEQLVGTVGHITVGTARTASPAEAKFLDAFEQPHYLLVEPIEPKDIFQQGDKVVLVKKQHHSWLATRYI” is higher in “soluble fraction (log2)” value: -1.63 for the first, -0.267 for the second.

First: HMVELGMSQNEFIQKFGKPFNKEMAYTYDKHKRETLFYKEDLYRGSWFIVTTAFTFVDSKLVSQEIVREER
Second: HMEDQLDSLKDIIYDYLENNELYYNDLQEFKKIIIENMEFIHPNLNHKLIDNNFFKLINFKLEYNF
The “soluble fraction (log2)” value of the first is lower: -3.41 for the first, -0.0455 for the second.

Compared with “HMSIEIIEITSNSSPKNLSEIIDIDATQIVADLMGLGIMKAIDTPLENSEIEQLLEKYNLIAEFVE”, “HMDMRLADLIGRDGITITFMRPSGKVEIDGEIYDAVSDVGLIDKNEEVEVIKFENAQLVVTKKNKN” is higher in “soluble fraction (log2)” value: -1.47 for the first, -0.0621 for the second.

Going from “HMTDVRFIDIPVTEHHPWNGMKVRDLQLPPGTLLVFLSHPGEKNTVPHGETVLRSGDVLVLGATAYTGQ” to “HMTKPTLMEVEIKGAIQNPGVYTLKRNSSISKLIKMSGPLLENADTSSISFTHILQDKDVVVIPEIK”, the “soluble fraction (log2)” value falls from -0.0558 to -0.262.

Going from “HMKLTINIDAAHDGKTIKQLFAEKGYSLELIKKFKYDGAIEVNGERKTVRWVLREGDLLVLEAN” to “HMSTNDIFISGDKLVLKNTTGQMDVFDMAGRKVLSSTNNVSEMNVSSLPKGVYVVSASIGGSKMKAKVYK”, the “soluble fraction (log2)” value rises from -1.25 to 0.527.

First: HMQTKSDMVYHRVREDIVNGVFAPGERLLISAVAKQYGVSEIPVREAFRVLSQEGFLKTRPNSGFVVS
Second: HMSRYLLPYAFARTQQVLLEEKSGELTLWMHSGSNLGGISEVTRKYAVQHVTHEPMDALLNRISSAYAN
The “soluble fraction (log2)” value of the first is higher: 0.0933 for the first, -3.41 for the second.

“HMDVNAQAGYDKLQSNQLDGARHDYEQALKTDPNNVDTLLALAAIAQRQGRSADADGYRQRAIDAD” and “HMDKSNEVLMNHYRKQEINQAKKRLEEEKMSIIQVLQLTNKEVITTDELLEALYISKEQLLDEIINTTQ” are within 0.2 log units of each other in “soluble fraction (log2)” value: -0.124 for the first, -0.0889 for the second.

First: HMAPLVTLEADGNGAVKLSNLAGHSIREVAGALGGAGLSLIPVGSGTSWKQNPAPGTVLHSGDTVTVYF
Second: HMSRVSVDGEEVNFEGEIPDDPSRIYELLMGALSEQSRVVVKFFVDGKDALLDEGFPSRYQMIEAESV
The “soluble fraction (log2)” value of the first is higher: 0.126 for the first, -0.285 for the second.

Compared with “HMDTIVVAARSIQARQTLTESDLRVEEQEIGAASDKYYTDIAEAVGLVSSRRLSPGQPILRTM”, “HMGKELSTVVVPDLTGLSVLEARNVLTKVGLQLTPSGAGIAFKQIPTPGTRLTLGATVTVYFVATGY” is higher in “soluble fraction (log2)” value: -0.28 for the first, 0.0979 for the second.

“HMVLVKFEWTPPDARILVDDHPVEARDKEMELPEGTHHVQALAPRGSGYESTVTDIEVRQGMDPVRIAL” and “HMSISDEDFAKLLDFVKEKWDAGELDNAEDIKAAISEGEKEFGVSLDESTRTTLASALQQLN” are within 0.2 log units of each other in “soluble fraction (log2)” value: -0.182 for the first, -0.134 for the second.

“HMGDGAWQQGEGGRWWYKYNNGTYPKDRVVTIGGKKYGFDSEGWMLSDTTKAFGGTTYSFAADGVATAQA” and “HMAISSADRIVAELRTWISGASPGTQLPSSRTLAARYGASPVTVQKALHTLAGMGLVEARPGAGTFVRRQS” are within 0.2 log units of each other in “soluble fraction (log2)” value: -0.0259 for the first, -0.189 for the second.

“HMGTSFEDIDRAVKSVRKPETDEAEKLHAGKTFKDIAETELFQKLTESFAGISDRVNEVIDLYTARAAE” and “HMQDGTILPGQKTAIRSLATSGGYDSQDLDTYLATTYGKSIDGLTRTEGADVIKAFQAGTVAK” are within 0.2 log units of each other in “soluble fraction (log2)” value: 0.143 for the first, 0.233 for the second.
